Assay results from patent publication US11219221B2 (FarmHannong Co., Ltd., priority 2017, dated 2022).

Test system: CyPPO17
Assay: Herbicide tolerance test of CyPPO17 wild type and variants in PPO-deficient E. coli BT3(ΔPPO)
Assay type: cell-based, Thermosynechococcus sp. NK55a
Conditions: BT3(ΔPPO) transformants, two or more amino acid mutations, dark; for Herbicide tolerance, tiafenacil: 37° C., 16 to 20 hours, relative to wild type at highest concentration (50, 200 μM); for Herbicide tolerance, flumioxazin: relative to wild type at highest concentration (100, 200 μM); for Herbicide tolerance, sulfentrazone: relative to wild type at highest concentration (200, 400 μM)
Protocol: The mutated CyPPO gene obtained from the Example 2 was transformed to BT3 (ΔPPO) strain which is deficient of PPO activity and cultured in LB media with PPO-inhibiting herbicide, thereby examining whether growth of transformed BT3 was not inhibited.
BT3 competent cells were transformed with the pET303-CyPPO16 and pET303-CyPPO17 plasmids and those with a mutation(s) constructed in Example 2 respectively, and were cultured in LB agar media containing carbenicillin (Gold Biotechnology, Co., Ltd.).
Single colony of E. coli transformed with each CyPPO gene was cultured in 3 ml of LB broth containing carbenicillin overnight, and then was subcultured until absorbance (0D600) reached 0.5 to 1. Then, it was diluted with LB broth to OD600=0.5. Again, the diluted solution was serially diluted 4 times by a factor of one tenth.
The LB agar media (LB 25 g/l, Bacto agar 15 g/l) containing carbenicillin (100 μg/ml) and 0 to 4,000 μM of various herbicides dissolved in DMSO was prepared. Next, 10 μl of each diluted solution was dropped on the plate and cultured at 37° C. under light (Tables 7 and 9, FIGS. 2 to 6, and 18 to 22) or dark (Tables 8 and 10, FIGS. 7 to 17, and 23 to 33) for 16 to 20 hours. Then, extent of tolerance was evaluated.
The extent of herbicide tolerance of the mutated genes was evaluated by comparing that of mutated genes with that of wild type. The relative tolerance was represented with “+” as a factor of 10 times. Evaluation result was listed in Tables 7 to10 and FIGS. 2 to 33:
In Tables 7 to 10, tolerance level was presented as of tolerance of wild type and of variants equivalent to that of wild type, and was done as ‘+’ per each 10 fold resistance until ‘+++++’ as maximal resistance. (Tolerance level was evaluated by relative growth level of variants to that of wild type in the media containing highest concentration of herbicide; ‘+’=1-9 fold higher tolerance, ‘++’=10-99 fold higher tolerance, ‘+++’=100-999 fold higher tolerance, ‘++++’=1,000-9,999 fold higher tolerance, ‘+++++’=more than 10,000 fold higher tolerance)
The concentrations of herbicides were written above the photographs of tolerance test. A dilution series (0D600=0.5, 0.05, 0.005, 0.0005, 0.00005) was made and spotted on LB agar plates supplemented with herbicides.

Row | Molecule | Herbicide tolerance, tiafenacil | Herbicide tolerance, flumioxazin | Herbicide tolerance, sulfentrazone
1 | V304M + F359I: CyPPO17 variant (protein, Synthetic (Protoporphyrinogen IX oxidase (CyPPO17) of Thermosynechococcus sp. NK55a), CyPPO17 variant) MEVDVAIVGGGLSGLSVAWRLQQSAPQYSGVLLEASDRLGGNITTQGAEGFVWELGPNSFAPTPALLQLIAEVGLHSELIRGDRHLPRYIYWRGELYPLEPTRPLALATSNLLSPWGKVRAALGALGFVPPYLGSGDESVNSFFRRHLGQEVAERLVAPFVSGVYAGDPQQLSAAAAFRRIAQLEKLGGGLIAGALRLRRQQPPKPRPPAEVQMRPGELGSFKEGLAALPRAIAQQLKAPVHLQTPVEAITPEPNGGYLLRSGEQTWQARSVVLATPAYQTAALVAPFQPAIARVLAAIPYPTMACVVLAYPAGLGRSVRPGFGVLIPRGQGIRTLGTIWSSCLFPQRTPAGWQVFTSIIGGATDPDLASLREEAIVQQVQQDLTRLLDLPAAKARLLGMKVWRRAIPQYLVGYPQQWQQVTHALSQTPGLFLCSNYAEGVALGDRVEHGNRTAAAVAAYLSGGQS | +++ (‘+++’=100-999 fold higher tolerance) | +++ (‘+++’=100-999 fold higher tolerance) | ++ (‘++’=10-99 fold higher tolerance)
2 | R88A + V164C + A166C + V304M + L326T + F359M: CyPPO17 variant (protein, Synthetic (Protoporphyrinogen IX oxidase (CyPPO17) of Thermosynechococcus sp. NK55a), CyPPO17 variant) MEVDVAIVGGGLSGLSVAWRLQQSAPQYSGVLLEASDRLGGNITTQGAEGFVWELGPNSFAPTPALLQLIAEVGLHSELIRGDRHLPAYIYWRGELYPLEPTRPLALATSNLLSPWGKVRAALGALGFVPPYLGSGDESVNSFFRRHLGQEVAERLVAPFVSGCYCGDPQQLSAAAAFRRIAQLEKLGGGLIAGALRLRRQQPPKPRPPAEVQMRPGELGSFKEGLAALPRAIAQQLKAPVHLQTPVEAITPEPNGGYLLRSGEQTWQARSVVLATPAYQTAALVAPFQPAIARVLAAIPYPTMACVVLAYPAGLGRSVRPGFGVTIPRGQGIRTLGTIWSSCLFPQRTPAGWQVFTSMIGGATDPDLASLREEAIVQQVQQDLTRLLDLPAAKARLLGMKVWRRAIPQYLVGYPQQWQQVTHALSQTPGLFLCSNYAEGVALGDRVEHGNRTAAAVAAYLSGGQS | +++++ (‘+++++’=more than 10,000 fold higher tolerance) | +++++ (‘+++++’=more than 10,000 fold higher tolerance) | ++++ (‘++++’=1,000-9,999 fold higher tolerance)
3 | V164C + A166L + L326T + F359M: CyPPO17 variant (protein, Synthetic (Protoporphyrinogen IX oxidase (CyPPO17) of Thermosynechococcus sp. NK55a), CyPPO17 variant) MEVDVAIVGGGLSGLSVAWRLQQSAPQYSGVLLEASDRLGGNITTQGAEGFVWELGPNSFAPTPALLQLIAEVGLHSELIRGDRHLPRYIYWRGELYPLEPTRPLALATSNLLSPWGKVRAALGALGFVPPYLGSGDESVNSFFRRHLGQEVAERLVAPFVSGCYLGDPQQLSAAAAFRRIAQLEKLGGGLIAGALRLRRQQPPKPRPPAEVQMRPGELGSFKEGLAALPRAIAQQLKAPVHLQTPVEAITPEPNGGYLLRSGEQTWQARSVVLATPAYQTAALVAPFQPAIARVLAAIPYPTVACVVLAYPAGLGRSVRPGFGVTIPRGQGIRTLGTIWSSCLFPQRTPAGWQVFTSMIGGATDPDLASLREEAIVQQVQQDLTRLLDLPAAKARLLGMKVWRRAIPQYLVGYPQQWQQVTHALSQTPGLFLCSNYAEGVALGDRVEHGNRTAAAVAAYLSGGQS | +++++ (‘+++++’=more than 10,000 fold higher tolerance) | +++++ (‘+++++’=more than 10,000 fold higher tolerance) | ++++ (‘++++’=1,000-9,999 fold higher tolerance)
4 | V304M + L326T + F359M: CyPPO17 variant (protein, Synthetic (Protoporphyrinogen IX oxidase (CyPPO17) of Thermosynechococcus sp. NK55a), CyPPO17 variant) MEVDVAIVGGGLSGLSVAWRLQQSAPQYSGVLLEASDRLGGNITTQGAEGFVWELGPNSFAPTPALLQLIAEVGLHSELIRGDRHLPRYIYWRGELYPLEPTRPLALATSNLLSPWGKVRAALGALGFVPPYLGSGDESVNSFFRRHLGQEVAERLVAPFVSGVYAGDPQQLSAAAAFRRIAQLEKLGGGLIAGALRLRRQQPPKPRPPAEVQMRPGELGSFKEGLAALPRAIAQQLKAPVHLQTPVEAITPEPNGGYLLRSGEQTWQARSVVLATPAYQTAALVAPFQPAIARVLAAIPYPTMACVVLAYPAGLGRSVRPGFGVTIPRGQGIRTLGTIWSSCLFPQRTPAGWQVFTSMIGGATDPDLASLREEAIVQQVQQDLTRLLDLPAAKARLLGMKVWRRAIPQYLVGYPQQWQQVTHALSQTPGLFLCSNYAEGVALGDRVEHGNRTAAAVAAYLSGGQS | ++++ (‘++++’=1,000-9,999 fold higher tolerance) | ++++ (‘++++’=1,000-9,999 fold higher tolerance) | +++ (‘+++’=100-999 fold higher tolerance)
5 | V164C + A166L + V304M + L326T + F359M: CyPPO17 variant (protein, Synthetic (Protoporphyrinogen IX oxidase (CyPPO17) of Thermosynechococcus sp. NK55a), CyPPO17 variant) MEVDVAIVGGGLSGLSVAWRLQQSAPQYSGVLLEASDRLGGNITTQGAEGFVWELGPNSFAPTPALLQLIAEVGLHSELIRGDRHLPRYIYWRGELYPLEPTRPLALATSNLLSPWGKVRAALGALGFVPPYLGSGDESVNSFFRRHLGQEVAERLVAPFVSGCYLGDPQQLSAAAAFRRIAQLEKLGGGLIAGALRLRRQQPPKPRPPAEVQMRPGELGSFKEGLAALPRAIAQQLKAPVHLQTPVEAITPEPNGGYLLRSGEQTWQARSVVLATPAYQTAALVAPFQPAIARVLAAIPYPTMACVVLAYPAGLGRSVRPGFGVTIPRGQGIRTLGTIWSSCLFPQRTPAGWQVFTSMIGGATDPDLASLREEAIVQQVQQDLTRLLDLPAAKARLLGMKVWRRAIPQYLVGYPQQWQQVTHALSQTPGLFLCSNYAEGVALGDRVEHGNRTAAAVAAYLSGGQS | +++++ (‘+++++’=more than 10,000 fold higher tolerance) | +++++ (‘+++++’=more than 10,000 fold higher tolerance) | ++++ (‘++++’=1,000-9,999 fold higher tolerance)
6 | R88A + V164C + A166L + L326T + F359M: CyPPO17 variant (protein, Synthetic (Protoporphyrinogen IX oxidase (CyPPO17) of Thermosynechococcus sp. NK55a), CyPPO17 variant) MEVDVAIVGGGLSGLSVAWRLQQSAPQYSGVLLEASDRLGGNITTQGAEGFVWELGPNSFAPTPALLQLIAEVGLHSELIRGDRHLPAYIYWRGELYPLEPTRPLALATSNLLSPWGKVRAALGALGFVPPYLGSGDESVNSFFRRHLGQEVAERLVAPFVSGCYLGDPQQLSAAAAFRRIAQLEKLGGGLIAGALRLRRQQPPKPRPPAEVQMRPGELGSFKEGLAALPRAIAQQLKAPVHLQTPVEAITPEPNGGYLLRSGEQTWQARSVVLATPAYQTAALVAPFQPAIARVLAAIPYPTVACVVLAYPAGLGRSVRPGFGVTIPRGQGIRTLGTIWSSCLFPQRTPAGWQVFTSMIGGATDPDLASLREEAIVQQVQQDLTRLLDLPAAKARLLGMKVWRRAIPQYLVGYPQQWQQVTHALSQTPGLFLCSNYAEGVALGDRVEHGNRTAAAVAAYLSGGQS | +++++ (‘+++++’=more than 10,000 fold higher tolerance) | +++++ (‘+++++’=more than 10,000 fold higher tolerance) | ++++ (‘++++’=1,000-9,999 fold higher tolerance)
